Measurements from patent publication US20260250737A1, “Engineered Luciferases and Luciferin Substrates” (Monod Bio, Inc., priority 2023, published 2026).

B1: 5287 (protein)
chain: MTPEAIRENVRAFYAALASGDWAAAKALFDPGVTITLWDGTTFTSVEEFRAWFEKQFKTSKDALREIVSMEVEGDVVRVLVRLTFVRDGKEQVVDLLQLFKFV
B2: 5295 (protein)
chain: MTPEEIRANVRAFYAALASGDLAAAKALFDPGVTITLWDGTTFTSVEEFRAWFEEQFETSKDALREIVSMEVEGDTVRVLVRLTFTRNGEEKVVDLLQLFKFV
B3: 5291 (protein)
chain: MTPEEIRENVRRFYAALASGDLETAKALFDPGVTITLWDGTTFTSVEEFRAWFEEQFQTSKDALREIVSMEIEGDVVRVLVRLTFVRDGKEEVVDLLQLFKFV
B4: 5288 (protein)
chain: MTPEAIIANVKAFYAALASGDLAAAKALFDPGVTITLWDGTTFTSVEEFRAWFEEQFKTSKDALREIESMEVEGDTVRVLVRLTFVRDGKEEVVDLLQLFKFV
B5: 5293 (protein)
chain: MTPEEIRANVRRFYAALASGDLATAEALFDPGVTITLWDGTTFTSVAEFRAWFEKQFKTSKDALREIESMEIEGDTVRVLVRLTFVRDGKEQVVDLLQLFKFV
B6: 5105 (protein)
chain: MTPEEIIANVKKFYEALASGDLATAKSLFDPGTTITLWDGTTFTSLEEFLAWFEKQFKASKDAKREIVSIEVDGNVVKVLVRLTYTVDGKEKVVDLLQLLKFV
B7: 5118 (protein)
chain: MTPEEIIANVKAFYAALASGDLAAAKALFDPGTTITLWDGTTFTSLDEFLAWFEKQFKASKDAKREILDIEVEGDVVRVLVRLTYTVDGKEKVVDLLQLLKFV
B8: 5114 (protein)
chain: MTPEEIIANVKNFYAALASGDLEAAKALFDPGTTITLWDGTTFTSLEEFLAWFEKQFKASKDAKREIVSMEVEGNVVKVLVRLTYTVDGEEKVVDLLQLLKFV
B9: 5110 (protein)
chain: MTPEEIIENVKKFYEALASGDLETAKSLFDPGTTITLWDGTTFTSLEEFLEWFEKQFEASKDAKREILSIEVEGNVVKVLVRLTYTKDGKEKVVDLLQLLKFV
B10: 5106 (protein)
chain: MTEEEIIANVEKFYAALASGDLETAKALFDPGTTITLWDGTTFTSLEEFLAWFEKQFKASKDAKREIVSIEVEGDTVKVLVRLTYTVDGKEKVVDLLQLLKFV
B11: 5115 (protein)
chain: MTPEEIIANVKKFYAALASGDLETAKALFDPGTTITLWDGTTFTSLEEFLAWFEKQFEASKDAKREIVSIEVKGNTVKVLVRLTYVKDGKEQVVDLLQLLKFV
B12: 5292 (protein)
chain: MTPEEIIENVKNFYAALASGDLEKAKALFDPGVTITLWDGTTFTSVEEFRKWFEEQFKTSKDALREIKSIEVEGDVVRVLVRLTFVRDGEVQEVDLLQLFKFV
B13: 5116 (protein)
chain: MTPEEIRANVERFYAALASGDLDTAKALFDPGTTITLWDGTTFTSLEEFLAWFEKQFKASKDAKREIVELEIEGNVVRVLVRLTYVKDGKEQVVDLLQLLKFV
B14: 5289 (protein)
chain: MTPEEIRANVERFYAALASGDLAAAKALFDPGVTITLWDGTTFTSVEEFRAWFEEQFQTSKDALREIVSMEIDGDTVRVLVRLTFVRDGEEQEVDLLQLFKFV
B15: 5108 (protein)
chain: MTPEEIIENVKAFYAALASGDLEAAKALFDPGTTITLWDGTTFTSLEEFLEWFEKQFEASKDAKREIKSIEVEGNVVKVLVRLTYVKDGKEKVVDLLQLLKFV
B16: 5121 (protein)
chain: MTPEEIKENVKKFYEALASGDLETAKSLFDPGTTITLWDGTTFTSLEEFLAWFEKQFDASKDAKREIVSMEIKGNEVKVLVRLTYTKDGKEQTVDLLQLLKFV
B17: 5102 (protein)
chain: MSEEQIRQNLRRFYEALDSGDAITAASLFDPGVTITLWDGTTFTSVEEFREWFESQFSTSKDALREISSLEVRGDTVEVTVRLSFTRNGQKHTVDLLQLFKFVGNRVVADRVYVNPTG
B18: 5101 (protein)
chain: MSEEQIRQNLRRFYEALDSGDAITAASLFDPGVTITLWDGTTFTSVEEFREWFESQFSTSKDALREISSLEVRGDTVEVTVRLSFTRNGQKHTVDLLQLFKFVGGGGGGNRVVADRVYVNPTG
B19: 5294 (protein)
chain: MTPEEIRANVRAFYAALASGDLEAAKALFDPGVTITLWDGTTFTSVEEFRAWFEEQFQTSKDALREIESLEVEGDVVRVLVRLTFTRDGKVEEVDLLQLFKFV
B20: 5111 (protein)
chain: MTPEEIRANVEAFYAALASGDLEAAKALFDPGTTITLWDGTTFTSLEEFLAWFEKQFETSKDAKREIVSLEIEGDTVRVLVRLTYTKNGEVKEVDLLQLLKFV
B21: 5119 (protein)
chain: MTPEQIRANVERFYAALASGDLETAKALFDPGTTITLWDGTTFTSLEEFLAWFEKQFKASKDAKREIVSLEIEGDTVRVLVRLTYTVDGEVKEVDLLQLLKFV
B22: 5120 (protein)
chain: MTPEEIRENVLRFYEALASGDLETAKALFDPGTTITLWDGTTFTSLEEFLAWFEEQFDTSKDAKREILSLEIEGDVVRVLVRLTYVKDGEEKVVDLLQLLKWV
B23: 5107 (protein)
chain: MTPEEIKANVEAFYAALASGDLEKAKALFDPGTTITLWDGTTFTSLEEFLAWFEKQFKASKDAKREIVSMKVEGDTVRVLVRLTYTKDGKEQVVDLLQLIKVV
B24: 5109 (protein)
chain: MTPEEIRANVKAFYAALASGDLEKAKALFDPGTTITLWDGTTFTSLEEFLAWFEKQFKASKDAKREIVSMEINGDTVRVLVRLTYTVDGEEKVVDLLQLLKFV
B25: 5113 (protein)
chain: MTPEEIRANVEAFYAALASGDLEAAKALFDPGTTITLWDGTTFTSLEEFLAWFEKQFEASKDAKREILSLEIEGNTVRVLVRLTYTKDGKEQVVDLLQLLKFV
B26: 5112 (protein)
chain: MTPEEIRANVRAFYAALASGDLEAAKALFDPGTTITLWDGTTFTSLEEFLAWFEKQFKASKDAKREIVSLEVEGDVVRVLVRLTYVKDGKEEVVDLLQLLKFV
B27: 5117 (protein)
chain: MTDEEIRANVRAFYAALASGDLETAKALFDPGTTITLWDGTTFTSLEEFLAWFEKQFKTSKDAKREIVSLEVEGDTVRVLVRLTYTKDGKEEVVDLLQLLKFV
B28: 5290 (protein)
chain: MTPEEIIENVRRFYAALASGDLETAKSLFDPGVTITLWDGTTFTSVEEFRAWFEAQFQTSKDALREIVSIEVEGDVVRVLVRLTFTRDGQTQEVDLLQLFKFV

Tested on: SmLux
Assay: Computationally generated LgLux variants expressed in E. coli, tested in lysates with SmLux and substrate 1c
Type: biochemical
Conditions: 50 uM substrate 1c; for Fold change upon SmLux peptide addition: 20 uM SmLux; for Baseline Signal (Normalized by expression): before SmLux peptide addition
Method: LgLux sequences were designed computationally, and their activity measured as depicted schematically in FIG. 45.
A library of the computationally generated LgLux variants were expressed in E. coli and tested in lysates. 20 uM of SmLux and 50 uM of substrate 1c was used for the screening.
LgLux_4039 sequence is as set forth in SEQ ID NO:2773. MBIO-5103 through MBIO-5124, MBIO-5261 through MBIO-5295, MBIO-5101, and MBIO-5102 (SEQ ID NO:2815-SEQ ID NO:2873, respectively) are computationally generated LgLux. The sequences and activity of these LgLux are shown below in Table 21.
MBIO-5358 and MBIO-5360 through MBIO-5381 (SEQ ID NO:2774-SEQ ID NO:2796, respectively) are computationally generated LgLux.

Row | Molecule | Fold change upon SmLux peptide addition | Baseline Signal (Normalized by expression)
1 | B1 | 1.1 | 174.8
2 | B2 | 1.28 | 186.4
3 | B3 | 1.02 | 170.2
4 | B4 | 1.6 | 170.8
5 | B5 | 3.78 | 166.2
6 | B6 | 1 | 167.4
7 | B7 | 1.05 | 152
8 | B8 | 1.38 | 271.8
9 | B9 | 0.97 | 167.6
10 | B10 | 1 | 169.8
11 | B11 | 3.07 | 165
12 | B12 | 6.75 | 168.6
13 | B13 | 1.11 | 162.6
14 | B14 | 1.92 | 173.8
15 | B15 | 0.92 | 167.4
16 | B16 | 1.29 | 126.6
17 | B17 | 2.2 | 2169.2
18 | B18 | 0.87 | 229.6
19 | B19 | 1.46 | 175.2
20 | B20 | 1.01 | 166.2
21 | B21 | 0.98 | 155.6
22 | B22 | 1.09 | 148.4
23 | B23 | 0.99 | 167.8
24 | B24 | 0.98 | 169
25 | B25 | 1.15 | 180.6
26 | B26 | 0.93 | 174.4
27 | B27 | 1.05 | 154.8
28 | B28 | 1.11 | 162.2
